Experimental findings from patent US7183065 are described below.

In experiment [1] the target is histone H1 peptide SEQ ID NO: 20 (human). Kind of experiment: ELISA on coated peptide; rFab at 1.0, 3.0 and 10.0 µg/ml.
Experiment [2] has as its target histone H1 peptide SEQ ID NO: 17 (human). Described as above.

B1: NANUC-2 (Fab)
chain 1: VKLLEQSGGGVVQPGKSLRLSCAASGFTFRNYGMHWVRQAPGKGLEWVAGISSDGRKKKYVDSVKGRFTISRDKSKNTLYLQMNSLRAEDTAVYYCAKLSRAGGFDIWGQGTMVTVSS
chain 2: AELTQSPGTLSLFPGERATLSCRASQRISTSFLAWYQQKPGQSPRLLIFDASTRAPGIPDRFSASWSGTDFTLTISRLEPEDFAVYYCQHYGGSPWTFGQGTKVEIK
B1: the results for the OD405 in experiment [1] and in experiment [2] were 0.5 OD405 and 0.25 OD405, respectively.
